Bounds are passed on as bounds.

This assay deals with HLA-A*02:01. The experiment in a line: IEDB peptide-MHC binding, purified MHC/competitive/radioactivity; ≥ and ≤ were set here for values at or beyond the usual limits of such assays. The settings on record: source organism: Mycobacterium tuberculosis H37Rv.

With ALLALTRAI, the IC50 came out at 0.42 µM.
As to AYGSFVRTV, the IC50 came out at 13 µM.
Take ELAAEPTEV: the IC50 amounted to 1.8 µM.
For the sequence GLWLSVAAV, the IC50 amounted to 0.11 µM.
For the sequence GSFVRTVSL, the half-maximal inhibitory concentration (IC50) was 59 µM.
The result for HVYAHQAQT reads 5.5 µM; that for LTRAILIRV, 53 µM; that for QAQTRHPAT, at least 250 µM.
For RTVSLPVGA the value was 2.5 µM.
For TEVGQDQYV, the 50% inhibitory concentration (IC50) was at least 250 µM.

The record behind these values is the Immune Epitope Database (IEDB).
